Values of other authors as cited in PMC2702134.

Biological target: Glu50 (UniProt position 50, LEWIGEINPDS)

## Catalytic antibody 34E4 (Kemp eliminase)
  pKa: 6.4
